Data: article PMC3469567
Where “and” joins values, the source holds several entries; their conditions need not be identical. Equal entries are not always repeated. Blank lines part the entries; values can stand above or below the molecule they belong to.

How the values were obtained:
[1] = molecular target: (N67D/)K113N-BS-RNase (bovine) (UniProt P00669); assay: SEC; thermally induced oligomerisation: 150-200 mg/ml in aqueous media (40% EtOH, with or without guanidine, and others), 45, 50 or 60°C for 1 h, then 0.2 M NaPi pH 6.7; Superdex 75
[2] = molecular target: (N67D/)K113N-BS-RNase (bovine) (UniProt P00669); assay: as above; remark: listed apart in the source
[3] = molecular target: (N67D/)K113N-BS-RNase (bovine) (UniProt P00669); assay: SEC; oligomers induced by lyophilisation from 40% acetic acid, re-dissolved in 0.2 or 0.4 M NaPi pH 6.7; Sephadex G-100 (0.1 M ammonium acetate pH 5.65) or Superdex 75 10/300 GL (0.2 or 0.4 M NaPi pH 6.7), room temperature; amounts as percent area of SEC peaks
[4] = molecular target: DFDNB-cross-linked native dimer of N67D-BS-RNase (bovine) (UniProt P00669); assay: as above
[5] = molecular target: T1, bovine pancreatic ribonuclease (RNase A) (bovine), P61823; assay: SEC; thermally induced oligomerisation: 150-200 mg/ml in aqueous media (40% EtOH, with or without guanidine, and others), 45, 50 or 60°C for 1 h, then 0.2 M NaPi pH 6.7; Superdex 75; settings: remark: other sources report otherwise
T1 chain: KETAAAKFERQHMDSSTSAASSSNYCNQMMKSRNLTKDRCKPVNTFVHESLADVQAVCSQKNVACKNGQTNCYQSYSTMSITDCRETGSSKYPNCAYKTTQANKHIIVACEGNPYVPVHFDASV

[6] = molecular target: T1, bovine pancreatic ribonuclease (RNase …); assay: SEC; oligomers induced by lyophilisation from 40% acetic acid, re-dissolved in 0.2 or 0.4 M NaPi pH 6.7; Sephadex G-100 (0.1 M ammonium acetate pH 5.65) or Superdex 75 10/300 GL (0.2 or 0.4 M NaPi pH 6.7), room temperature; amounts as percent area of SEC peaks; settings: remark: other sources report otherwise

- stoichiometry N [1]: 4
- stoichiometry N [2]: > 4
- stoichiometry N [3]: 4
- yield of dimer D (% of the total) (% of the total) [3]: 53.7
- yield of hexamers H (% of the total) (% of the total) [3]: 10.9
- yield of larger oligomers L.O. (% of the total) (% of the total) [3]: 9.9
- yield of tetramer TT1/C (% of the total) (% of the total) [3]: 13.3
- yield of tetramer TT2/N (% of the total) (% of the total) [3]: 12.2
Molecule: (N67D/)K113N-BS-RNase (from UniProt P00669 27-150) (enzyme)

- stoichiometry N [4]: 4
Molecule: DFDNB-cross-linked native dimer of N67D-BS-RNase (from UniProt P00669 27-150) (enzyme)

- stoichiometry N [5]: 2
- stoichiometry N [6]: 2 and 3 and 4
B1: bovine pancreatic ribonuclease (RNase A), P61823 27-150 (enzyme)
chain: KETAAAKFERQHMDSSTSAASSSNYCNQMMKSRNLTKDRCKPVNTFVHESLADVQAVCSQKNVACKNGQTNCYQSYSTMSITDCRETGSSKYPNCAYKTTQANKHIIVACEGNPYVPVHFDASV
